Non-standard residues stand in square brackets, D forms with d. No end group written: not given here. *: point of attachment. NH(3,5-(CF3)2-benzyl) = FC(F)(F)c1cc(CN*)cc(C(F)(F)F)c1; NMePhe(4-F) = CN[C@@H](Cc1ccc(F)cc1)C(=O)O; Phe(4-F) = N[C@@H](Cc1ccc(F)cc1)C(=O)O; Dmt = Cc1cc(O)cc(C)c1C[C@H](N)C(=O)O; NMeF = CN[C@@H](Cc1ccccc1)C(=O)O; NHBn = c1ccc(CN*)cc1
T1: human NK1 receptor (human, UniProt P25103)
T1 chain: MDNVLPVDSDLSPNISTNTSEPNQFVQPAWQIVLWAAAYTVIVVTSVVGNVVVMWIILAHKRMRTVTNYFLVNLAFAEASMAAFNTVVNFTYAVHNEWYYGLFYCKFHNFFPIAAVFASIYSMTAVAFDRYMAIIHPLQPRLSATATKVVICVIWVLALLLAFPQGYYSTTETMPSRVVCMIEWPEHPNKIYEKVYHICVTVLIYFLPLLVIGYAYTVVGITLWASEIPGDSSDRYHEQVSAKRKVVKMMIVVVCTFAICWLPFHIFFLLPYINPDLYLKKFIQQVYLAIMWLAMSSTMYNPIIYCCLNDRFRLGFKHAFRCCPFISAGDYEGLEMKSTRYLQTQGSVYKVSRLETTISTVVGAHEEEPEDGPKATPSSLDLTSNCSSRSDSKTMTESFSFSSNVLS

T2: delta opioid receptor (DOR) (UniProt P41143)
T2 chain: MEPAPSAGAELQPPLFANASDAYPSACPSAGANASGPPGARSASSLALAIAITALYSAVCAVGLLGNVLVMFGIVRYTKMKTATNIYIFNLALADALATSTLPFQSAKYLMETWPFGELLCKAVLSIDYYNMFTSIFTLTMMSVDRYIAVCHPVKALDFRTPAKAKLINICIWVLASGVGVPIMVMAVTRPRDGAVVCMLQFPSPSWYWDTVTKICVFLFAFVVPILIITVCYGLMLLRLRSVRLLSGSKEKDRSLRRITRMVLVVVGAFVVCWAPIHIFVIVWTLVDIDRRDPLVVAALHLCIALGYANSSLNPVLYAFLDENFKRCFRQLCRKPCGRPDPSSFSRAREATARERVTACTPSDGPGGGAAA

T3: rat NK1 receptor (rat, UniProt P14600)
T3 chain: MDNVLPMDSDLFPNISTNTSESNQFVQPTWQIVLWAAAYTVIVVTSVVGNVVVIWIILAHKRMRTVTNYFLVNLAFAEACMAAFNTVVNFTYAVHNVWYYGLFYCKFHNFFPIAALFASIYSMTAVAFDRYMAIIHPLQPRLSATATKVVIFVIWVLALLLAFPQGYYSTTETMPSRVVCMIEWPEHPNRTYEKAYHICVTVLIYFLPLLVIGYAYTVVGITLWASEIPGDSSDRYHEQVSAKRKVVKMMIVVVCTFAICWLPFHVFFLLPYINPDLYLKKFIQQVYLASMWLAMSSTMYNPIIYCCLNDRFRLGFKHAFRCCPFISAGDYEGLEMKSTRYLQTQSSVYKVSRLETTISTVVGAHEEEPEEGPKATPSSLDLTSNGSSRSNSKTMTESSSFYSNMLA


Biological target: T1, human NK1 receptor
Assay: competition
Work on [Dmt][dA]FGYPLW (not fully specified (C-terminus)) [AKG118] yielded a Ki of 2.34 nM.

Biological target: T2, delta opioid receptor (DOR)
Assay: competition
Y[dA]G[NMeF]PLW-{NH(3,5-(CF3)2-benzyl)} [AKG117] showed a Ki of 237 nM. XAGFPLW (Dmt1, D-Ala2; C-terminal NH-Bn(3',5'-(CF3)2)) [AKG116] showed a Ki of 1 nM. With XAGFPLW (Dmt1, D-Ala2, Phe(4-F)4; C-terminal NH-Bn(3',5'-(CF3)2)) [AKG127] the Ki was 1 nM.

Biological target: T3, rat NK1 receptor
Assay: competition
In the case of Y[dA]G[NMeF]PLW-{NH(3,5-(CF3)2-benzyl)} [AKG117], the Ki is reported as 61.1 nM. XAGFPLW (Dmt1, D-Ala2; C-terminal NH-Bn(3',5'-(CF3)2)) [AKG116] was tested, and the Ki was 26.9 nM. XAGFPLW (Dmt1, D-Ala2, Phe(4-F)4; C-terminal NH-Bn(3',5'-(CF3)2)) [AKG127] showed a Ki of 29.4 nM.

Biological target: T3, rat NK1 receptor
Assay: competition
Remark: another data set of the same source
YPFFPLW [AKG226] gave a Ki of 31.7 nM. For YPFFPLW [AKG222], the Ki was 32.4 nM. For YPFFPLW [AKG224], the Ki was 33.7 nM.

What follows are binders tested against mu opioid receptor (MOR) (UniProt P35372) (assay: competition).
Sequence of mu opioid receptor (MOR) (P35372 whole entry): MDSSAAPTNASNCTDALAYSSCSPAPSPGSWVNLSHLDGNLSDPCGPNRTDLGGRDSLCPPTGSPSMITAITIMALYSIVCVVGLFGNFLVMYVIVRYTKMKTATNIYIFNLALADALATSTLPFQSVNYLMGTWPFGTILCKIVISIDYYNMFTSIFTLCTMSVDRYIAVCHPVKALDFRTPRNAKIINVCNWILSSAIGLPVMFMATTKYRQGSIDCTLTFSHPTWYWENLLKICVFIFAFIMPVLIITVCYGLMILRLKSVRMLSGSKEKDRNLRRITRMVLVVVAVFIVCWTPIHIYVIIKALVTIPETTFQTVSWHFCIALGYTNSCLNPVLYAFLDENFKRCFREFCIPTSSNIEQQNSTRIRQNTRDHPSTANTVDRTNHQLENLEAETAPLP
[Dmt][dA]FGYPLW (not fully specified (C-terminus)) [AKG118] gave a Ki of 1 nM.

Biological target: mu opioid receptor (MOR) (UniProt P35372)
Assay: competition
Remark: another data set of the same source
In the case of Y[dA]G[NMeF]QPLW (not fully specified (C-terminus)) [AKG129], the Ki is reported as 7 nM. Y[dA]GFNPLW (not fully specified (C-terminus)) [AKG104] was tested, and the Ki was 51 nM. In the case of Y[dA]GF[dN]PLW-NHBn [AKG102], the Ki is reported as 90 nM. Binder Y[dA]GF[dQ]PLW (not fully specified (C-terminus)) [AKG103] has a Ki of 116 nM. With Y[dA]G[NMePhe(4-F)]QPLW-NHBn [AKG143] the Ki was 2 nM. For Y[dA]GFQPLW (not fully specified (C-terminus)) [AKG105], the Ki was 38 nM. Y[dA]G[Phe(4-F)]QPLW-NHBn [AKG142] was tested, and the Ki was 8 nM.

Biological target: T1, human NK1 receptor
Assay: competition
Remark: another data set of the same source
Work on Y[dA]G[NMeF]PLW-{NH(3,5-(CF3)2-benzyl)} [AKG117] yielded a Ki of 3.35 nM. XAGFPLW (Dmt1, D-Ala2; C-terminal NH-Bn(3',5'-(CF3)2)) [AKG116] gave a Ki of 1.4 nM. XAGFPLW (Dmt1, D-Ala2, Phe(4-F)4; C-terminal NH-Bn(3',5'-(CF3)2)) [AKG127] was tested, and the Ki was 0.88 nM.

Biological target: mu opioid receptor (MOR) (UniProt P35372)
Assay: competition
Remark: another data set of the same source
Work on Y[dA]G[NMeF]PLW-{NH(3,5-(CF3)2-benzyl)} [AKG117] yielded a Ki of 27 nM. XAGFPLW (Dmt1, D-Ala2; C-terminal NH-Bn(3',5'-(CF3)2)) [AKG116] was tested, and the Ki was 3 nM. XAGFPLW (Dmt1, D-Ala2, Phe(4-F)4; C-terminal NH-Bn(3',5'-(CF3)2)) [AKG127] showed a Ki of 1 nM.

Biological target: T2, delta opioid receptor (DOR)
Assay: competition
Remark: another data set of the same source
With Y[dA]G[NMeF]QPLW (not fully specified (C-terminus)) [AKG129] the Ki was 1 nM. With Y[dA]GFNPLW (not fully specified (C-terminus)) [AKG104] the Ki was 17 nM. Y[dA]GF[dN]PLW-NHBn [AKG102] was tested, and the Ki was 54 nM. In the case of Y[dA]G[NMePhe(4-F)]QPLW-NHBn [AKG143], the Ki is reported as 0.7 nM. For Y[dA]GFQPLW (not fully specified (C-terminus)) [AKG105], the Ki was 9 nM. Binder Y[dA]G[Phe(4-F)]QPLW-NHBn [AKG142] has a Ki of 2 nM.

Biological target: T2, delta opioid receptor (DOR)
Assay: competition
Remark: another data set of the same source
For [Dmt][dA]FGYPLW (not fully specified (C-terminus)) [AKG118], the Ki was 3 nM.

Biological target: T3, rat NK1 receptor
Assay: competition
Remark: another data set of the same source
In the case of Y[dA]GFNPLW (not fully specified (C-terminus)) [AKG104], the Ki is reported as 20.2 nM. Y[dA]GF[dN]PLW-NHBn [AKG102] was tested, and the Ki was 133 nM. Y[dA]GF[dQ]PLW (not fully specified (C-terminus)) [AKG103] showed a Ki of 106 nM. Binder Y[dA]G[NMePhe(4-F)]QPLW-NHBn [AKG143] has a Ki of 21.7 nM. Y[dA]GFQPLW (not fully specified (C-terminus)) [AKG105] showed a Ki of 12.5 nM.

Biological target: T1, human NK1 receptor
Assay: competition
Remark: another data set of the same source
In the case of Y[dA]G[NMeF]QPLW (not fully specified (C-terminus)) [AKG129], the Ki is reported as 0.83 nM. Work on Y[dA]GFNPLW (not fully specified (C-terminus)) [AKG104] yielded a Ki of 1.16 nM. Work on Y[dA]GF[dN]PLW-NHBn [AKG102] yielded a Ki of 2.26 nM. For Y[dA]GF[dQ]PLW (not fully specified (C-terminus)) [AKG103], the Ki was 2.71 nM. With Y[dA]G[NMePhe(4-F)]QPLW-NHBn [AKG143] the Ki was 3.2 nM. With Y[dA]GFQPLW (not fully specified (C-terminus)) [AKG105] the Ki was 0.92 nM. Binder Y[dA]G[Phe(4-F)]QPLW-NHBn [AKG142] has a Ki of 5.71 nM.

Biological target: T3, rat NK1 receptor
Assay: competition
Remark: another data set of the same source
Binder [Dmt][dA]FGYPLW (not fully specified (C-terminus)) [AKG118] has a Ki of 25.4 nM.

Biological target: T1, human NK1 receptor
Assay: competition
Remark: another data set of the same source
YPFFPLW [AKG226] was tested, and the Ki was 5.9 nM. YPFFPLW [AKG222] showed a Ki of 4.19 nM. With YPFFPLW [AKG224] the Ki was 3.39 nM.

— patent US11141452 (dated 2021)
